Target: T1, AtHB13-GST (Arabidopsis thaliana, UniProt Q8LC03 1-294)
T1 sequence: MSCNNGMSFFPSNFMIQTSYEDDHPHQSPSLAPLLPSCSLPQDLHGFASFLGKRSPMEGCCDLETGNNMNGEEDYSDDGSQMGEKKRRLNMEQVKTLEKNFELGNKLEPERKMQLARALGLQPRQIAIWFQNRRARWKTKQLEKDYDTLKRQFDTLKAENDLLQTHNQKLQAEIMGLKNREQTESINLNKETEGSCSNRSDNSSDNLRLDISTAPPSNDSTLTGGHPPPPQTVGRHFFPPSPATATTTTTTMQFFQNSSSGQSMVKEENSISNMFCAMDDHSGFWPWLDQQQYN
Test: EMSA; 200x unlabeled same-sequence competitor also run (lane 3); EMSA as in Wu et al. 2012, Odyssey Infrared EMSA kit (LI-COR); buffer, salt, pH and temperature not stated
Settings: protein: recombinant; tags: GST (pDEST24, C-terminal fusion); chain copies: 2; label: 5'-DY682; blunt

B1: JUB1 promoter 40-bp fragment (AtHB13BS-L) (dsDNA)
DNA 1: CTATAAAATTAGTTGCAATAAATGATTTAATTATTTTCCG
DNA 2: CGGAAAATAATTAAATCATTTATTGCAACTAATTTTATAG
  binding result: binds
